According to the supplement of paper PMC9112550, “Optimization of the antimicrobial peptide Bac7 by deep mutational scanning” (BMC Biology, 2022):

Tested on: Escherichia coli TOP10
Experiment: shrunken log2 fold change of peptide-encoding DNA abundance (4.5 h post-induction vs induction); higher = less antimicrobial activity (less host growth inhibition)
Settings: time post-induction: 4.5 h; library: site-saturation at positions 5, 18, 19, 20
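Further: peptides expressed intracellularly from a pBAD plasmid library in pooled LB shake-flask culture, induced with 0.3% L-arabinose, DNA abundance read by NGS, three biological replicates, DESeq2 with apeglm shrinkage.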

RRIRHRPPRLPRPRPRPGSRPRP
shrunken log2 fold change: -0.168

RRIRHRPPRLPRPRPRPGTAPRP
shrunken log2 fold change: -0.275

RRIRHRPPRLPRPRPRPGVNPRP
shrunken log2 fold change: -0.000777

RRIRHRPPRLPRPRPRPGVWPRP
shrunken log2 fold change: 0.178

RRIRHRPPRLPRPRPRPGWDPRP
shrunken log2 fold change: 0.18

RRIRHRPPRLPRPRPRPGWMPRP
shrunken log2 fold change: 0.0172

RRIRHRPPRLPRPRPRPGWVPRP
shrunken log2 fold change: 0.0965

RRIRHRPPRLPRPRPRPHCIPRP
shrunken log2 fold change: -0.199

RRIRHRPPRLPRPRPRPHFQPRP
shrunken log2 fold change: 0.0598

RRIRHRPPRLPRPRPRPHGPPRP
shrunken log2 fold change: 0.0873

RRIRHRPPRLPRPRPRPHHGPRP
shrunken log2 fold change: -0.755

RRIRHRPPRLPRPRPRPHHYPRP
shrunken log2 fold change: -0.533

RRIRHRPPRLPRPRPRPHIFPRP
shrunken log2 fold change: -0.308

RRIRHRPPRLPRPRPRPHITPRP
shrunken log2 fold change: -0.857

RRIRHRPPRLPRPRPRPHKKPRP
shrunken log2 fold change: -0.0741

RRIRHRPPRLPRPRPRPHKMPRP
shrunken log2 fold change: -0.266

RRIRHRPPRLPRPRPRPHKNPRP
shrunken log2 fold change: -0.263

RRIRHRPPRLPRPRPRPHKVPRP
shrunken log2 fold change: -0.299

RRIRHRPPRLPRPRPRPHLIPRP
shrunken log2 fold change: -0.097

RRIRHRPPRLPRPRPRPHLMPRP
shrunken log2 fold change: -0.177

RRIRHRPPRLPRPRPRPHLTPRP
shrunken log2 fold change: -0.0621

RRIRHRPPRLPRPRPRPHMRPRP
shrunken log2 fold change: -0.00342

RRIRHRPPRLPRPRPRPHNDPRP
shrunken log2 fold change: -0.329

RRIRHRPPRLPRPRPRPHNGPRP
shrunken log2 fold change: -0.362

RRIRHRPPRLPRPRPRPHNIPRP
shrunken log2 fold change: -0.209

RRIRHRPPRLPRPRPRPHPMPRP
shrunken log2 fold change: -0.076

RRIRHRPPRLPRPRPRPHQMPRP
shrunken log2 fold change: -0.0152

RRIRHRPPRLPRPRPRPHSDPRP
shrunken log2 fold change: 0.0468

RRIRHRPPRLPRPRPRPHSNPRP
shrunken log2 fold change: -0.167

RRIRHRPPRLPRPRPRPHTRPRP
shrunken log2 fold change: -0.174

RRIRHRPPRLPRPRPRPHYHPRP
shrunken log2 fold change: -0.785

RRIRHRPPRLPRPRPRPICMPRP
shrunken log2 fold change: -0.00804

RRIRHRPPRLPRPRPRPIECPRP
shrunken log2 fold change: 0.0039

RRIRHRPPRLPRPRPRPIETPRP
shrunken log2 fold change: -0.00822

RRIRHRPPRLPRPRPRPIFAPRP
shrunken log2 fold change: 0.158

RRIRHRPPRLPRPRPRPIFFPRP
shrunken log2 fold change: 0.0211

RRIRHRPPRLPRPRPRPIFLPRP
shrunken log2 fold change: -0.572

RRIRHRPPRLPRPRPRPIFQPRP
shrunken log2 fold change: 0.153

RRIRHRPPRLPRPRPRPIGIPRP
shrunken log2 fold change: 0.0295

RRIRHRPPRLPRPRPRPIHGPRP
shrunken log2 fold change: -0.0135

RRIRHRPPRLPRPRPRPIHTPRP
shrunken log2 fold change: 0.00096

RRIRHRPPRLPRPRPRPIHYPRP
shrunken log2 fold change: -0.0138

RRIRHRPPRLPRPRPRPIINPRP
shrunken log2 fold change: -0.324

RRIRHRPPRLPRPRPRPIKAPRP
shrunken log2 fold change: -0.157

RRIRHRPPRLPRPRPRPIKFPRP
shrunken log2 fold change: -0.0972

RRIRHRPPRLPRPRPRPILCPRP
shrunken log2 fold change: -0.182

RRIRHRPPRLPRPRPRPILPPRP
shrunken log2 fold change: 0.0147

RRIRHRPPRLPRPRPRPIMVPRP
shrunken log2 fold change: -0.000687

RRIRHRPPRLPRPRPRPIPIPRP
shrunken log2 fold change: -0.115

RRIRHRPPRLPRPRPRPIPQPRP
shrunken log2 fold change: -0.126

RRIRHRPPRLPRPRPRPIPTPRP
shrunken log2 fold change: -0.218

RRIRHRPPRLPRPRPRPIQMPRP
shrunken log2 fold change: -0.00723

RRIRHRPPRLPRPRPRPIQNPRP
shrunken log2 fold change: -0.252

RRIRHRPPRLPRPRPRPIQVPRP
shrunken log2 fold change: 0.000744

RRIRHRPPRLPRPRPRPIQWPRP
shrunken log2 fold change: -0.01

RRIRHRPPRLPRPRPRPISWPRP
shrunken log2 fold change: -0.245

RRIRHRPPRLPRPRPRPITWPRP
shrunken log2 fold change: -0.149

RRIRHRPPRLPRPRPRPIVYPRP
shrunken log2 fold change: -0.452

RRIRHRPPRLPRPRPRPIWNPRP
shrunken log2 fold change: -0.892

RRIRHRPPRLPRPRPRPKAMPRP
shrunken log2 fold change: -0.0705

RRIRHRPPRLPRPRPRPKCCPRP
shrunken log2 fold change: -0.0444

RRIRHRPPRLPRPRPRPKCKPRP
shrunken log2 fold change: -0.14

RRIRHRPPRLPRPRPRPKCVPRP
shrunken log2 fold change: -0.069

RRIRHRPPRLPRPRPRPKDAPRP
shrunken log2 fold change: -0.112

RRIRHRPPRLPRPRPRPKEEPRP
shrunken log2 fold change: -0.0523

RRIRHRPPRLPRPRPRPKFVPRP
shrunken log2 fold change: -0.0479

RRIRHRPPRLPRPRPRPKGQPRP
shrunken log2 fold change: -0.00141

RRIRHRPPRLPRPRPRPKHAPRP
shrunken log2 fold change: 0.126

RRIRHRPPRLPRPRPRPKHFPRP
shrunken log2 fold change: 0.451

RRIRHRPPRLPRPRPRPKKDPRP
shrunken log2 fold change: -0.494

RRIRHRPPRLPRPRPRPKMWPRP
shrunken log2 fold change: 0.451

RRIRHRPPRLPRPRPRPKNLPRP
shrunken log2 fold change: 0.133

RRIRHRPPRLPRPRPRPKPCPRP
shrunken log2 fold change: -0.139

RRIRHRPPRLPRPRPRPKQKPRP
shrunken log2 fold change: -0.00654

RRIRHRPPRLPRPRPRPKRHPRP
shrunken log2 fold change: 0.0834

RRIRHRPPRLPRPRPRPKSEPRP
shrunken log2 fold change: -0.00614

RRIRHRPPRLPRPRPRPKSGPRP
shrunken log2 fold change: -0.242

RRIRHRPPRLPRPRPRPKSHPRP
shrunken log2 fold change: 0.77

RRIRHRPPRLPRPRPRPKTCPRP
shrunken log2 fold change: -0.0999

RRIRHRPPRLPRPRPRPKWKPRP
shrunken log2 fold change: 0.107

RRIRHRPPRLPRPRPRPKYCPRP
shrunken log2 fold change: -0.000924

RRIRHRPPRLPRPRPRPKYQPRP
shrunken log2 fold change: -0.145

RRIRHRPPRLPRPRPRPLCWPRP
shrunken log2 fold change: -0.0222

RRIRHRPPRLPRPRPRPLDRPRP
shrunken log2 fold change: -0.56

RRIRHRPPRLPRPRPRPLEAPRP
shrunken log2 fold change: -0.00262

RRIRHRPPRLPRPRPRPLEEPRP
shrunken log2 fold change: 0.136

RRIRHRPPRLPRPRPRPLEGPRP
shrunken log2 fold change: 0.0244

RRIRHRPPRLPRPRPRPLEIPRP
shrunken log2 fold change: -0.0535

RRIRHRPPRLPRPRPRPLFEPRP
shrunken log2 fold change: -0.135

RRIRHRPPRLPRPRPRPLFLPRP
shrunken log2 fold change: -0.612

RRIRHRPPRLPRPRPRPLGEPRP
shrunken log2 fold change: 0.433

RRIRHRPPRLPRPRPRPLHGPRP
shrunken log2 fold change: 0.00793

RRIRHRPPRLPRPRPRPLHKPRP
shrunken log2 fold change: -0.294

RRIRHRPPRLPRPRPRPLKNPRP
shrunken log2 fold change: -0.273

RRIRHRPPRLPRPRPRPLMNPRP
shrunken log2 fold change: -0.642

RRIRHRPPRLPRPRPRPLMPPRP
shrunken log2 fold change: -0.107

RRIRHRPPRLPRPRPRPLNAPRP
shrunken log2 fold change: -0.0576

RRIRHRPPRLPRPRPRPLNKPRP
shrunken log2 fold change: -0.677

RRIRHRPPRLPRPRPRPLNVPRP
shrunken log2 fold change: -0.588

RRIRHRPPRLPRPRPRPLQDPRP
shrunken log2 fold change: -0.0821

RRIRHRPPRLPRPRPRPLQTPRP
shrunken log2 fold change: 0.139

RRIRHRPPRLPRPRPRPLVVPRP
shrunken log2 fold change: -0.0489

RRIRHRPPRLPRPRPRPLWKPRP
shrunken log2 fold change: -0.102

RRIRHRPPRLPRPRPRPLYDPRP
shrunken log2 fold change: -0.738

RRIRHRPPRLPRPRPRPLYEPRP
shrunken log2 fold change: -0.211

RRIRHRPPRLPRPRPRPLYPPRP
shrunken log2 fold change: -0.804

RRIRHRPPRLPRPRPRPMCNPRP
shrunken log2 fold change: -0.186

RRIRHRPPRLPRPRPRPMCSPRP
shrunken log2 fold change: -0.0225

RRIRHRPPRLPRPRPRPMDIPRP
shrunken log2 fold change: -0.00136

RRIRHRPPRLPRPRPRPMDQPRP
shrunken log2 fold change: -0.0412

RRIRHRPPRLPRPRPRPMEAPRP
shrunken log2 fold change: -0.0935

RRIRHRPPRLPRPRPRPMGEPRP
shrunken log2 fold change: -0.0135

RRIRHRPPRLPRPRPRPMGKPRP
shrunken log2 fold change: -0.189

RRIRHRPPRLPRPRPRPMGTPRP
shrunken log2 fold change: -0.0597

RRIRHRPPRLPRPRPRPMGYPRP
shrunken log2 fold change: -0.134

RRIRHRPPRLPRPRPRPMKCPRP
shrunken log2 fold change: -0.0796

RRIRHRPPRLPRPRPRPMKGPRP
shrunken log2 fold change: 0.081

RRIRHRPPRLPRPRPRPMMNPRP
shrunken log2 fold change: -0.0135

RRIRHRPPRLPRPRPRPMRLPRP
shrunken log2 fold change: 0.0431

RRIRHRPPRLPRPRPRPMRNPRP
shrunken log2 fold change: 0.435

RRIRHRPPRLPRPRPRPMVDPRP
shrunken log2 fold change: -0.222

RRIRHRPPRLPRPRPRPMVGPRP
shrunken log2 fold change: -0.0276

RRIRHRPPRLPRPRPRPMVSPRP
shrunken log2 fold change: -0.00841

RRIRHRPPRLPRPRPRPMYHPRP
shrunken log2 fold change: -0.287

RRIRHRPPRLPRPRPRPMYRPRP
shrunken log2 fold change: -0.0948

RRIRHRPPRLPRPRPRPMYVPRP
shrunken log2 fold change: 0.0136

RRIRHRPPRLPRPRPRPMYWPRP
shrunken log2 fold change: -0.222

RRIRHRPPRLPRPRPRPNDLPRP
shrunken log2 fold change: 0.0529

RRIRHRPPRLPRPRPRPNEWPRP
shrunken log2 fold change: -0.0925

RRIRHRPPRLPRPRPRPNFYPRP
shrunken log2 fold change: -0.515

RRIRHRPPRLPRPRPRPNINPRP
shrunken log2 fold change: -1.31

RRIRHRPPRLPRPRPRPNKNPRP
shrunken log2 fold change: -0.717

RRIRHRPPRLPRPRPRPNLRPRP
shrunken log2 fold change: 0.00562

RRIRHRPPRLPRPRPRPNNNPRP
shrunken log2 fold change: -1.09

RRIRHRPPRLPRPRPRPNPGPRP
shrunken log2 fold change: 0.111

RRIRHRPPRLPRPRPRPNPWPRP
shrunken log2 fold change: -0.248

RRIRHRPPRLPRPRPRPNQRPRP
shrunken log2 fold change: 0.333

RRIRHRPPRLPRPRPRPNQSPRP
shrunken log2 fold change: -0.3

RRIRHRPPRLPRPRPRPNRAPRP
shrunken log2 fold change: -0.0865

RRIRHRPPRLPRPRPRPNRDPRP
shrunken log2 fold change: -0.0852

RRIRHRPPRLPRPRPRPNSDPRP
shrunken log2 fold change: -0.0908

RRIRHRPPRLPRPRPRPNSFPRP
shrunken log2 fold change: 0.00867

RRIRHRPPRLPRPRPRPNTNPRP
shrunken log2 fold change: -0.74

RRIRHRPPRLPRPRPRPNTSPRP
shrunken log2 fold change: -0.534

RRIRHRPPRLPRPRPRPNYFPRP
shrunken log2 fold change: -0.125

RRIRHRPPRLPRPRPRPNYGPRP
shrunken log2 fold change: -0.0744

RRIRHRPPRLPRPRPRPNYLPRP
shrunken log2 fold change: -0.114

RRIRHRPPRLPRPRPRPPATPRP
shrunken log2 fold change: 0.29

RRIRHRPPRLPRPRPRPPCAPRP
shrunken log2 fold change: 0.228

RRIRHRPPRLPRPRPRPPEMPRP
shrunken log2 fold change: 0.484
